Data reported in paper PMC12655427.

Key:
[1] = biological target: recombinant soluble human FcRn variant FcRn-E2A (FcRn heavy α-chain extracellular domain with β2-microglobulin) (human) (UniProt P55899); assay: BLI; Octet RED96e; FcRn loaded at 5 µg/mL on HIS1K (anti-penta-HIS) biosensors; antibody 900 as analyte at 89.9 nM; global 1:1 model; pH 6.0–6.1
[2] = biological target: recombinant soluble human FcRn variant FcRn-F2A (FcRn heavy α-chain extracellular domain with β2-microglobulin) (human) (UniProt P55899); assay: as above
[3] = biological target: recombinant soluble human FcRn variant FcRn-P2A (FcRn heavy α-chain extracellular domain with β2-microglobulin) (human) (UniProt P55899); assay: as above
[4] = biological target: recombinant soluble human FcRn variant FcRn-E2A (FcRn heavy α-chain extracellular domain with β2-microglobulin) (human) (UniProt P55899); assay: BLI; Octet RED96e; FcRn loaded at 5 µg/mL on HIS1K (anti-penta-HIS) biosensors; antibody 900 as analyte at 89.9 nM; global 1:1 model; pH 7.4–7.5
[5] = biological target: recombinant soluble human FcRn variant FcRn-F2A (FcRn heavy α-chain extracellular domain with β2-microglobulin) (human) (UniProt P55899); assay: as above
[6] = biological target: recombinant soluble human FcRn variant FcRn-P2A (FcRn heavy α-chain extracellular domain with β2-microglobulin) (human) (UniProt P55899); assay: as above

Substance “antibody 900 (variable regions of the light and heavy chains of the murine antibody 9E2 fused to the Fc fragment of human IgG1 with M252Y, S254T, T256E, E333A, H433K/N434F) (Fc fusion)” has a Kd [1] of 3.46 nM, a Kd [2] of 4.13 nM and a Kd [3] of 3.15 nM. The Kd [4] was 15.8 nM, the Kd [5] was 14.3 nM and the Kd [6] was 17.3 nM.
